“Also recorded” adds a separate entry of the source.
B1: TMlec155: Recombinant first 155 amino acids of murine TM, restricted to the lectin-like region, polyhistidine-tagged, expressed in Pichia pastoris (protein)
chain: LSALAKLQPTGSQCVEHECFALFQGPATFLDASQACQRLQGHLMTVRSSVAADVISLLLSQSSMDLGPWIGLQLPQGCDDPVHLGPLRGFQWVTGDNHTSYSRWARPNDQTAPLCGPLCVTVSTATEAAPGEPAWEEKPCETETQGFLCEFYFTA
modifications: left off: small tags and cut ends
notes: Recombinant first 155 amino acids of murine TM, restricted to the lectin-like region, polyhistidine-tagged, expressed in Pichia pastoris
B2: pr. 400 bp: Recombinant human TM fragment, amino acids 33 to 159 of the mature protein, expressed in Pichia pastoris (protein, listed as Homo sapiens)
chain: DGLRGHLMTVRSSVAADVISLLLNGDGGVGRRRLWIGLQLPPGCGDPKRLGPLRGFQWVTGDNNTSYSRWARLDLNGAPLCGPLCVAVSAAEATVPSEPIWEEQQCEVKADGFLCEFHFPATCRPLA
modifications: PEPTIDE (1)...(127) Human thrombomodulin fragment 4
notes: Recombinant human TM fragment, amino acids 33 to 159 of the mature protein, expressed in Pichia pastoris
B3: pr. 680 bp: Recombinant human TM fragment, amino acids 1 to 224 of the mature protein, entire N-terminal domain, expressed in Pichia pastoris (protein, listed as Homo sapiens)
chain: AEPQPGGSQCVEHDCFALYPGPATFLNASQICDGLRGHLMTVRSSVAADVISLLLNGDGGVGRRRLWIGLQLPPGCGDPKRLGPLRGFQWVTGDNNTSYSRWARLDLNGAPLCGPLCVAVSAAEATVPSEPIWEEQQCEVKADGFLCEFHFPATCRPLAVEPGAAAAAVSITYGTPFAARGADFQALPVGSSAAVAPLGLQLMCTAPPGAVQGHWAREAPGAWD
modifications: PEPTIDE (1)...(224) Human thrombomodulin fragment 1
notes: Recombinant human TM fragment, amino acids 1 to 224 of the mature protein, entire N-terminal domain, expressed in Pichia pastoris
B4: pr. 480 bp: Recombinant human TM fragment, amino acids 1 to 157 of the mature protein, expressed in Pichia pastoris (protein, listed as Homo sapiens)
chain: AEPQPGGSQCVEHDCFALYPGPATFLNASQICDGLRGHLMTVRSSVAADVISLLLNGDGGVGRRRLWIGLQLPPGCGDPKRLGPLRGFQWVTGDNNTSYSRWARLDLNGAPLCGPLCVAVSAAEATVPSEPIWEEQQCEVKADGFLCEFHFPATCRP
modifications: PEPTIDE (1)...(157) Human thrombomodulin fragment 2
notes: Recombinant human TM fragment, amino acids 1 to 157 of the mature protein, expressed in Pichia pastoris

Key:
fEND.5 cells = experiment: Static adhesion assay: human neutrophils on activated fEND.5 cells; type: cell-based, murine endothelial cell line; conditions: for LPS-induced adhesion of human neutrophils to fEND.5 cells (effect in words) / PMN Adhesion to LPS-stimulated fEND.5 Cells, Mean: LPS 20 μg/ml 3 hrs; for PMN Adhesion to LPS-stimulated fEND.5 Cells, Mean / PMN Adhesion to TNF-stimulated fEND.5 Cells, Mean: human neutrophils 50,000 per well; for TNF-induced adhesion of human neutrophils to fEND.5 cells (effect in words) / PMN Adhesion to TNF-stimulated fEND.5 Cells, Mean: TNFα 200 U/ml 3 hrs
Experimental: Static adhesion assays using human neutrophils (50,000 per well) and confluent fEND.5 cells in 24-well plates were performed exactly as described (see below—Methods section 11). Where noted, TNFα (200 U/ml) or LPS 20 μg/ml, were used to activate the fEND.5 cells for 3 hrs. PMNs were co-incubated with one of the recombinant human TM fragments 1, 2 or 4, (SEQ ID NO 1, 2, 4) or with HPLC-purified peptides representing human TM fragments 3,6 or 7 (SEQ ID NO 3, 6, 7). Tables 11-17 show results, where the amount of recombinant fragment in μg is shown on the bar graphs, and * indicates p<0.05 as compared with buffer control (i.e. without recombinant protein) under the same conditions. In all cases, appropriate controls were used for comparisons.
(§1) Endothelial cells were plated in 24-well dishes and grown to confluence. Following 2 washes of the cell monolayers with HBSS, freshly prepared BCECF-AM-labeled, neutrophils derived from human peripheral blood, or murine bone marrow-derived PMNs or lymphocytes 50,000 per well, were added in a final volume of 1 ml for 30 minutes at room temperature. The media was decanted and the cell monolayers were gently washed three times with HBSS after which the adherent fluorescently labeled leukocytes were counted with an inverted epiflourescence microscope as described above.

HUVECs = experiment: Rescue of HUVECs from serum starvation-induced cell death; type: cell-based, human; conditions: 3 days of serum deprivation
Experimental: Because endothelial cell death is a pathway of sustained tissue damage, we evaluated whether TMlec155 was capable of rescuing HUVECs from serum starvation-induced cell death. After 3 days of serum deprivation, over 95% of HUVECs died. Serum starvation with the addition of TMlec155 at concentrations of 1, 10 and 20 μg/ml rescued 2±0.6%, 18±7% and 34±14% of the cells (p=0.69, p<0.05, p<0.05, respectively compared with serum-starved controls), showing that soluble TM rnay also have pro-survival properties.

[1] = system: TM^LeD/LeD endothelial cells; experiment: Static adhesion assay: murine PMNs on endothelial cells from TM^LeD/LeD mice; type: cell-based; conditions: for PMN Adhesion (# per 15 HPFs): PMNs from wild-type mice
Experimental: Constitutive levels of circulating soluble TM, composed of proteolytic components of the extracellular domains, are found in the plasma of normal individuals, while quantitative changes occur in different disease states. Purified recombinant TMlec155 was prepared using the Pichia pastoris expression system, and further purified by a series of chromatographic steps as detailed in the methods. In a static adhesion assay on TM^Led/Led endothelial cells, PMNs were co-incubated with TMlec155 at two concentrations. Adhesion of PMNs to the resting endothelial cells was, as before, increased as compared with adhesion to wild-type endothelial cells (Table 9). […] The degree of suppression of adhesion was almost to the level of adhesion to wild-type endothelial cells. […] The role of recombinant TMlec155 in vivo was tested by injecting wild-type mice with LPS 20 μg/gm i.p., followed 5 minutes later with an intravenous bolus of recombinant TMlec155 or buffer alone. After a further 3 hours, the serum cytokine response was determined.
Endothelial tumors were induced to grow in 7 day old mice following intraperitoneal (i.p.) injection of retrovirus carrying the middle T antigen of murine Polyomavirus (PymT). After 10-14 days, the tumors were excised, and endothelial cells were isolated^32.33. Primary cultures of lymphatic endothelial cells were isolated from intraperitoneal lymphangiomas, growth of which was induced by injection of incomplete Freund's adjuvant exactly as described^34. Cells were cultured on collagen or gelatin coated plates in M199 media supplemented with 20% fetal bovine serum, porcine heparin 0.1 mg/ml, endothelial cell mitogen 5 μg/ml (Biomedical Technologies Inc., Stoughton, Mass.), 100 μg/ml penicillin and streptomycin 100 μg/ml. Cell cultures were incubated at 37° C. in a humidified atmosphere of 5% CO2 and 95% air, and experiments were performed at passage 3-8. Over 95% of the cells immuno-stained positively for TM and vWF, confirming the endothelial origin and purity.
Neutrophils and lymphocytes were isolated from bone marrow according to the method of Lowell and Berton ^35. Each population was assessed to be over 95% pure by microscopic analysis after Wright staining.
as §1

pERK1/2 and NFκB = experiment: TNFα-induced pERK1/2 and NFκB in HUVECs; type: cell-based, human; conditions: TNFα 200 U/ml for 20 minutes
Experimental: We predicted that soluble lectin-like domain of TM would suppress PMN adhesion by altering regulation of MAP kinase pathways in ECs. Therefore, HUVECs were exposed to TNFα (200 U/ml) for 20 minutes. […] Total ERK1/2 levels remained unchanged.

IL-1β = experiment: Cytokine response in vivo after LPS i.p. in wild-type mice; conditions: LPS 20 μg/gm i.p.
Experimental: Table 10: Effect of recombinant TMlec155 on cytokine response in vivo. Wild-type mice were treated with LPS 20 μg/gm i.p., following 5 min later with the noted treatment. Plasma levels of IL-1b were measured 3 hours later
Constitutive levels of circulating soluble TM, composed of proteolytic components of the extracellular domains, are found in the plasma of normal individuals, while quantitative changes occur in different disease states. Purified recombinant TMlec155 was prepared using the Pichia pastoris expression system, and further purified by a series of chromatographic steps as detailed in the methods. In a static adhesion assay on TM^Led/Led endothelial cells, PMNs were co-incubated with TMlec155 at two concentrations. […] After a further 3 hours, the serum cytokine response was determined.
Double antibody sandwich ELISA kits, purchased from R & D Systems Europe (Abingdon, UK), were used to quantitate murine plasma levels of TNFα, IL-1β, IL-6 and IL-10. […] A sensitive and specific radioimmunoassay to quantitate plasma levels of murine FPA was performed as previously reported^24.
Lipopolysaccharide (LPS) from Escherichia coli serotype 0111:B4 (Sigma) was injected intraperitoneally into 10-12 week old mice. For lethality studies, animals were closely monitored each day until either recovery or cessation of breathing. […]

Molecule | LPS-induced adhesion of human neutrophils to fEND.5 cells (effect in words) (fEND.5 cells) | PMN Adhesion to LPS-stimulated fEND.5 Cells, Mean (fEND.5 cells; 1 μg of fragment) | PMN Adhesion to LPS-stimulated fEND.5 Cells, Mean (fEND.5 cells; 5 μg of fragment) | PMN Adhesion to LPS-stimulated fEND.5 Cells, Mean (fEND.5 cells; 8 μg of fragment) | TNF-induced adhesion of human neutrophils to fEND.5 cells (effect in words) (fEND.5 cells) | PMN Adhesion to LPS-stimulated fEND.5 Cells, Mean (fEND.5 cells; 15 μg of fragment) | other results
pept n^o 23: HPLC-purified peptide, amino acids 84-97 of SEQ ID NO: 1 (human TM) | significantly suppressed | 31.015 | 21.535 | – | – | – | –
pept. N^o 24: HPLC-purified peptide, amino acids 3-33 of SEQ ID NO: 1 (human TM) (PQPGGSQCVEHDCFALYPGPATFLNASQICD; PEPTIDE (1)...(31) Human thrombomodulin fragment 3; listed as Homo sapiens) | significantly suppressed | 38.830 | 44.019 | 22.000 | – | – | –
B1 | – | – | – | – | – | – | cells rescued from serum starvation-induced cell death (HUVECs; 1 μg/ml): 2±0.6%; cells rescued from serum starvation-induced cell death (HUVECs; 10 μg/ml): 18±7%; cells rescued from serum starvation-induced cell death (HUVECs; 20 μg/ml): 34±14%; PMN Adhesion (# per 15 HPFs) ([1]; TM^LeD/LeD + TNF endothelial cells, recombinant TMlec155 3.6 mg): 132 ± 90 # per 15 HPFs; PMN Adhesion (# per 15 HPFs) ([1]; TM^LeD/LeD + TNF endothelial cells, recombinant TMlec155 7.2 mg): 153 ± 106 # per 15 HPFs; PMN Adhesion (# per 15 HPFs) ([1]; resting TM^LeD/LeD endothelial cells, recombinant TMlec155 3.6 mg): 15 ± 6 # per 15 HPFs; PMN Adhesion (# per 15 HPFs) ([1]; resting TM^LeD/LeD endothelial cells, recombinant TMlec155 7.2 mg): 12 ± 7 # per 15 HPFs; Adhesion of PMNs to TNFα-activated TM^Led/Led endothelial cells (effect in words) ([1]; static adhesion assay, PMNs co-incubated with TMlec155): significantly reduced; Adhesion of PMNs to resting TM^Led/Led endothelial cells (effect in words) ([1]; static adhesion assay, PMNs co-incubated with TMlec155 at two concentrations): significantly decreased; also recorded: abrogated; also recorded: significant decrease in adhesion; Accumulation of NFκB (pERK1/2 and NFκB): similarly interfered; Accumulation of pERK1/2 (pERK1/2 and NFκB): similarly interfered; IL-1β levels (effect in words) (IL-1β; i.v. bolus 5 minutes later, 3 hours, compared with control): significantly suppressed; IL-1β (IL-1β; treatment i.v. bolus 5 min later, plasma 3 hours later): 286 ± 75 ng/mL
B2 | suppressed | – | 33.642 | 29.725 | suppressed | – | PMN Adhesion to TNF-stimulated fEND.5 Cells, Mean (fEND.5 cells; 8 μg of fragment): 53.417; PMN Adhesion to TNF-stimulated fEND.5 Cells, Mean (fEND.5 cells; 20 μg of fragment): 63.500
B3 | significantly suppressed | – | 29.403 | 24.292 | significantly suppressed | 18.333 | PMN Adhesion to TNF-stimulated fEND.5 Cells, Mean (fEND.5 cells; 5 μg of fragment): 85.656; PMN Adhesion to TNF-stimulated fEND.5 Cells, Mean (fEND.5 cells; 10 μg of fragment): 24.303
B4 | significantly suppressed | – | 27.68 | 25.50 | – | 19.01 | –

— US7341992B2, “Lectin-like domain of thrombomodulin and its therapeutic use” (Vlaams Interuniversitair Instituut Voor Biotechnologie VZW, priority 2001, dated 2008)
